Laboratory results reported in US9506077B2, “Synthetic chloroplast transit peptides” (DOW AGROSCIENCES LLC, priority 2012, dated 2016).

B1: TraP8: chloroplast transit peptide, encoding sequence SEQ ID NO:26, fused to dgt-28 (protein)
chain: MAQSSRICHGVQNPCVIISNLSKSNQNKSPFSVSLKTHQQQRRAYQISSWGLKKSNNGSVIRPVKA
modifications: Chloroplast Transit Peptide
B2: TraP23: synthetic chloroplast transit peptide, SEQ ID NO:11; encoded by SEQ ID NO:12; tested fused to GFP, dgt-28, dgt-31, cry2Aa (protein)
chain: MAQINKSANGVRNASLISNFSNTRQAKSPFSLSCGTRLKNSSRGLKKVAVRLIGSRVKVSAS
modifications: TraP23 synthetic chloroplast transit peptide
notes: tested fused to GFP, dgt-28, dgt-31, cry2Aa
B3: TraP4: chloroplast transit peptide, encoding sequence SEQ ID NO:24, fused to dgt-28 (protein)
chain: MLARQGGSLRASQCNAGLARRVEVGALVVPRPISVNDVVPHVYSAPLSVARRSCSKSSIRSTRRLQTTVCS
modifications: Chloroplast Transit Peptide

Columns and labels:
T1 Arabidopsis = T1 Arabidopsis response to glyphosate applied postemergence (Tables 5-7); type: in vivo, Arabidopsis thaliana
Source text: Transgenic T1 Arabidopsis plants containing the dgt-28 transgene were sprayed with differing rates of glyphosate. Elevated rates were applied in this study to determine the relative levels of resistance (105, 420, 1,680 or 3,360 g ae/ha). A typical 1× usage rate of glyphosate that will control non-transformed Arabidopsis is 420 g ae/ha. […] The T1 Arabidopsis plants that were used in this study were variable copy number for the dgt-28 transgene. The low copy dgt-28 T1 Arabidopsis plants were self-pollinated and used to produce T2 plants.
The Arabidopsis T1 transformants were first selected from the background of untransformed seed using a glufosinate selection scheme. Three flats or 30,000 seed were analyzed for each T1 construct. The T1 plants selected above were molecularly characterized and representative plants with variable copy number were subsequently transplanted to individual pots and sprayed with various rates of commercial glyphosate as previously described. The response of these plants is presented in terms of % visual injury 2 weeks after treatment (WAT). […] An arithmetic mean and standard deviation is presented for each construct used for Arabidopsis transformation. The range in individual response is also indicated in the last column for each rate and transformation. Wild-type, non-transformed Arabidopsis (c.v. Columbia) served as a glyphosate sensitive control.

T1 tobacco = experiment: Postemergence glyphosate tolerance of dgt-28 T1 tobacco (Table 25); type: in vivo, Tobacco (cv. Petit Havana); conditions: 2240 g ae/ha glyphosate, 14 DAT
Source text: T1 resistant plants from each event used in the progeny testing were given unique identifiers and sampled for zygosity analyses of the dgt-28 gene. Zygosity data were used to assign 2 hemizygous and 2 homozygous replicates to each rate of glyphosate applied allowing for a total of 4 replicates per treatment. These plants were compared against wildtype Petite havana tobacco. All plants were sprayed with a track sprayer set at 187 L/ha. The plants were sprayed from a range of 560-4480 g ae/ha DURANGO DMA™. All applications were formulated in water with the addition of 2% w/v ammonium sulfate (AMS). Plants were evaluated at 7 and 14 days after treatment. Plants were assigned an injury rating with respect to overall visual stunting, chlorosis, and necrosis. The T1 generation is segregating, so some variable response is expected due to difference in zygosity.

[1] = test system: chloroplasts of the maize protoplast; experiment: Maize protoplast transient assay, GFP microscopy; type: cell-based, Zea mays var. B104; conditions: TraP23-GFP, maize protoplasts, 12 hours incubation
Source text: The Trap23 v2 synthetic chloroplast transit peptide-encoding polynucleotide sequence (SEQ ID NO:12) was cloned upstream of the green fluorescent protein gene and incorporated into the pDAB106598 construct (FIG. 5) for testing via the maize protoplast transient in planta assay. The resulting construct contained the following plant transcription unit (PTU). The first PTU was comprised of the Zea mays Ubiquitin 1 promoter (ZmUbi1 promoter; Christensen, A., Sharrock R., and Quail P., (1992) Maize polyubiquitin genes: structure, thermal perturbation of expression and transcript splicing, and promoter activity following transfer to protoplasts by electroporation, Plant Molecular Biology, 18:675-689), TraP-green fluorescent protein fusion gene (TraP23-GFP; U.S. Pat. No. 7,678,893), and Zea mays Peroxidase 5 3′ untranslated region (ZmPer5 3′UTR; U.S. Pat. No. 6,384,207). The construct was confirmed via restriction enzyme digestion and sequencing.
Seed of Zea mays var. B104 were surface sterilized by shaking vigorously in 50% Clorox (3% sodium hypochlorite), containing 2-3 drops of Tween 20, for about 20 minutes. […]
Transfection of 100 to 500 μl of protoplasts (1-5×10^5) was completed by adding the protoplasts to a 2 ml microfuge tube containing about 40 μg of plasmid DNA (pDAB106598), at room temperature. […] Fluorescence of GFP was viewed by microscopy after 12 hours of incubation. […]

[2] = test system: infiltrated tobacco cells; experiment: Tobacco transient assay, anti-GFP Western blot; type: cell-based, Nicotiana benthamiana; conditions: infiltrated tobacco leaf; band size vs GFP control
Method: Samples of the infiltrated tobacco plants were assayed via Western blotting. Leaf punches were collected and subjected to bead-milling. About 100-200 mg of leaf material was mixed with 2 BBs (steel balls; Daisy; Rogers, Ark.) and […] of PBST for 3 minutes in a Kleco™ bead mill. The samples were then spun down in a centrifuge at 14,000×g at 4° C. The supernatant was removed and either analyzed directly via Western blot or immunoprecipitated. The immunoprecipitations were performed using the Pierce Direct IP Kit™ (Thermo Scientific; Rockford, Ill.) following the manufacturer's protocol. Approximately, 50 μg of anti-GFP was bound to the resin. The samples were incubated with the resin overnight at 4° C. Next, the samples were washed and eluted the following morning and prepped for analysis by combining equal volumes of 2×8M Urea sample buffer and then boiling the samples for 5 minutes. The boiled samples were run on a 4-12% SDS-Bis Tris gel in MOPS buffer for 40 minutes. The gel was then blotted using the Invitrogen iBlot™ (Life Technologies; Carlsbad, Calif.) following the manufacturer's protocol. The blotted membrane was blocked for 10 minutes using 5% non-fat dry milk in PBS-Tween solution. The membrane was probed with the primary antibody (monoclonal anti-GFP in rabbit) used at a 1:1000 dilution in the 5% non-fat dry milk in PBS-Tween solution for 1 hour. […]

[3] = test system: chloroplasts of the tobacco cells; experiment: Tobacco transient assay, confocal microscopy of TraP-GFP; type: cell-based, Nicotiana benthamiana; conditions: TraP23-GFP, infiltrated tobacco leaf
Source text: The Trap23 synthetic chloroplast transit peptide sequence were initially tested via a transient in planta assay. A polynucleotide sequence which encodes the Trap23v2 (SEQ ID NO:12) synthetic chloroplast transit peptide sequences was synthesized. The resulting construct contained two plant transcription units (PTU). The first PTU was comprised of the Arabidopsis thaliana Ubiquitin 10 promoter (AtUbi10 promoter; Callis, et al., (1990) J. Biol. Chem., 265: 12486-12493), TraP-green fluorescent protein fusion gene (TraP-GFP; U.S. Pat. No. 7,678,893), and Agrobacterium tumefaciens ORF 23 3′ untranslated region (AtuORF23 3′UTR; U.S. Pat. No. 5,428,147). […]
Agrobacterium-infiltrated tobacco leaves were severed from the plant, and placed into a petri-dish with water to prevent dehydration. The infiltrated tobacco leaves were observed under blue light excitation with long-pass filter glasses held in place using a Dark Reader Hand Lamp™ (Clare Chemical Research Co.; Dolores, Colo.) to identify undamaged areas of the leaf that were successfully expressing the GFP reporter proteins. […]

Molecule | typical 1x usage rate of glyphosate that will control non-transformed Arabidopsis (T1 Arabidopsis) [g ae/ha] | % Injury Ave (T1 tobacco) | accumulation of GFP within the chloroplasts (microscopy imaging) [1] | processing and cleavage of transit peptide from GFP (Western blot) [2] | accumulation of GFP protein within the chloroplasts (microscopy imaging) [3]
O=C(O)CNCP(=O)(O)O [glyphosate] | 420 | – | – | – | –
B1 | – | 9.3% | – | – | –
B2 | – | 9.5% | accumulated within the chloroplasts | processed | did not accumulate detectable amounts of GFP protein within the chloroplasts
B3 | – | of 37.5% was demonstrated with the event containing TraP4, | – | – | –
